Where a chain is given by its changes, count along the chain named.

The chains are these.
B1: STLM213 (antibody, from another filing, V domains shown)
VH: EVQLLESGGGLVQPGGSLRLSCAASGFTFSFYDMIWVRQAPGKGLEWVSTIRGEGGDTNYADSVKGRFTISRDNSKNTLYLQMNSLRAEDTAVYYCARDPWSTEGSFFVLDYWGQGTLVTVSS
VL: EIVLTQSPATLSLSPGERATLSCRASQSVDDDLAWYQQKPGQAPRLLIYDASNRATGIPARFSGSGSGTDFTLTISSLEPEDFAVYYCQQYIDAPLTFGQGTKVEIK
B2: STLM214 (antibody, from another filing, V domains shown)
VH: B1 VH with F31S, I35F, T50D, R52K, D57R, N59A
VL: B1 VL
B3: STLM216 (antibody, from another filing, V domains shown)
VH: B1 VH with F31S, I35F, T50D, R52K, D57A
VL: B1 VL with D93G, L96I
B4: STLM215 (antibody, from another filing, V domains shown)
VH: B1 VH with F31S, I35F, T50A, R52A, D57R, N59Y
VL: B1 VL with D93G, L96I

For the first assay, the target named is T1, human ST2L (human, UniProt Q01638 19-328, limits assumed).
T1 construct: also called IL-1R4; IL-33Ra
T1 sequence (looked up): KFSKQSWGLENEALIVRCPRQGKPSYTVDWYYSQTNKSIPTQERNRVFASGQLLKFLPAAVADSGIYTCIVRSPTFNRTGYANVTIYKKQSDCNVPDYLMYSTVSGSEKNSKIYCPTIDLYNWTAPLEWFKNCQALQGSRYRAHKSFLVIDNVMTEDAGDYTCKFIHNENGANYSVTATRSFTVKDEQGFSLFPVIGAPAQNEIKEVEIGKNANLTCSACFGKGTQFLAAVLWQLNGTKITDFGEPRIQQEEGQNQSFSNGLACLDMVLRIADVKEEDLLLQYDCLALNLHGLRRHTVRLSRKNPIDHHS
The experiment in a line: affinity table; method not stated.
In turn, B1 returned a Kd of 14 pM, a koff of 0.000108 s⁻¹ and a kon of 7.54e+06 M⁻¹ s⁻¹.

Molecule B2 gave a Kd of 33 pM, a koff of 0.000299 s⁻¹ and a kon of 9.16e+06 M⁻¹ s⁻¹.

As to B3, the Kd is 16 pM, the koff turned out to be 0.000158 s⁻¹ and the kon stood at 9.63e+06 M⁻¹ s⁻¹.

As for B4, the Kd stood at 25 pM, the koff was 0.000172 s⁻¹ and the kon turned out to be 6.91e+06 M⁻¹ s⁻¹.

A further assay concerns the target cyno ST2L (cyno). In words: affinity table; method not stated.
The molecule B1 registered a Kd of 8 pM, a koff of 0.000124 s⁻¹ and a kon of 1.64e+07 M⁻¹ s⁻¹.

Molecule B2 registered a Kd of 37 pM, a koff of 0.000264 s⁻¹ and a kon of 7.2e+06 M⁻¹ s⁻¹.

B3: the Kd turned out to be 3 pM, the koff was 0.000264 s⁻¹ and the kon worked out at 7.89e+07 M⁻¹ s⁻¹.

On to B4, for which the Kd came to 10 pM, the koff worked out at 0.000369 s⁻¹ and the kon came to 3.54e+07 M⁻¹ s⁻¹.

The Kd is the constant that tells how readily two partners part at equilibrium. Lower therefore signals tighter binding. By koff is commonly meant the first-order rate constant of dissociation. Usually kon stands for a measure of how fast the partners come together. High values mean faster complex formation, low ones slower complex formation.
